Reference: the NTF2 design screens of Basanta et al. (2020)

Assay: protease stability score; higher = more stable; yeast display proteolysis, trypsin and chymotrypsin;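 note: relative to predicted unfolded state with 0 unfolded-like and 1 meaning tenfold more protease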

| Sequence | protease stability score |
| --- | --- |
| DEDEERIREVVERFLRDWETGDEKSLKHLLDPNVRMIIDGVDIVGREEALRLMKKLVDDLGIKHVHFHRVRLDVQGDKVRSEVDGEFEVGDKHTKVHTLLILRKVDGKWIFESVHMDHK | 2.27 |
| DEDEERKHKILEIWLHSLETGDETKLEEMVDPNVRIEFNGREHHGWEHFLEFVRVFGAKVLHLEDEREDGNKIIHHIVVHVNGRRHTLIVIAHKVNGRWVISSIRFE | 1.45 |
| DEDEERMEHMIHLLDHALETGDWRTISKLIDPHVRLEVNGVNFVGREEIITFLLEIRMSSRIHIKDFRVVGDKLEMEIDSHIDLHYNGKTYQTRVESRLIIKKVNGRWILQESSER | 1.15 |
| DEDEERMHWMVEVLLRMLETGNEEIVKRLVDPNARVHTEDHSSMGREEFSRFMLELAKRFDVFHDVELKHVEVQGEKIILDGKFHIEVNGRRNYLDIELIIIKIDGRWKIEEVRFH | 1.25 |
| DEDEERNEHFLRLYEKITTTGDEDIAKELIDPNARLHVNGKDIHGRESVVKWLKELRIHHLKLRHFRIVGEKAENDISYDVEVDGRTNRRDVHIYLLKIDGRWVIHSIEVR | 1.84 |
| DEDEERSERLLHMVIELLLTGDEEKWNNLLDPHARVEIDGQERHGRHIVTHFLTRFKNVRMHIHDVKVYGEKVDITTEITFNGKHINVHIELVFVNGKMTSVRFEWHRH | 2.02 |
| DEDEERVKLASELYTHIMHTGDERLTKEFFDPRVRSDINGRELHGREIITEMVSRYKNMTLHSHREEVQGEWAFIDGRMEYGDKEWKIHIITLKVNGRWVVTEIEFH | 0.778 |
| DEDEERVREFFELFFKALFTGDEEELKRLLDPHVKLIINGREFVGREQMTRLLNEIRVSWTELRIRRIERQGDKVIFDAEVHVERHQGDYHEQKTIKVILYMRKVDGRWLLESIEIR | 2.38 |
| DEDEESATKFTRELIHHTRTGDEESLKELADPNVRIDFNGVEIHGMEWWLKLHVHLGAKIILRLKDIETIGDKVHIHGEREIRVNGKNIRTKIRILVEKVDGRWVLKHEELG | 1.21 |
| DEDEESLRRMTTLLLYLWLTGDFEEMQKLADPRVKLDAENRNVHGREEWYEFMKRLGVKHSEVHHLRVINGRIDVETRVDVDGQEVRIRFIIDKVDGRWFLRRVYVH | 1.85 |
| DEDEESNKLFEDLLSEAIRTGDWRMLRHLADPNVRVDINGKKLVGWEELMRFMHELRIDRHHSRIHDSDSQGDKMHIDVRLEIDGNINGRKHRFRIESELILVKVNGRWLLEESRVG | 1.67 |
| DEDEESSESFYRLWVELFETGNFEILERLFDPHVRIKIGDKHIHGMEEHIRESFHIIERFKGVQIRVDEVRLFDGRMDVHGELIINGQSVRMRIIVRKVNGRWHLTEMILD | 1.48 |
| DEDEESSKLAIEFLLRALITGDEKTMSELLDPNARLVVNGVEIVGMHVIVRHFIEMRLERIHVRIRSWTVFDGRLLNDTELHRHINVNGVEEDRSNRVELFVKKVDGKWKLEMIIIN | 2.63 |
| DEDEESTKHALELWEESMETGDEHDLKHLVDPHARLEVGDKTYHGREAVHVLFRRIDHLHDIRIDHVEVQGNKIHMDVTLNYYFNGRVEEEKFEILILKINGRWRIKSMRIK | 1.78 |
| DEDEETAIRVVKEFWKAVMTGDERHLKEYFDPHTRLDVDGQDQHGREDLTEFMFHMRVERTTIHNWRLQGDYVYLHVHVVGQINGKSKETEFYIVVFKINGRWSIHHITIR | 1.33 |
| DEDEETAREMVEHFLQILLTGDEHNLSRLMDPNARVQIGDKTLHGRVNFVKWIEELGLDRVDVQLRRSRVIGNKIHIHGEERFNGVTMESHVDAVKINGQWHIERVEHR | 0.629 |
| DEDEETITRTLEFQRESLRTGDWKFIHRLFDPDARFLINGRDRHGRDLLIDILRKLGVEKINLHVHRMSYVGDKMRVETELVVGDFIFDTRLFEEKVNGKWLMRSMEIH | 0.735 |
| DEDEETLHEIVEILIRWLKTGDFDAVLKNLDPDARVEINGQELHGREQWYRYIHEEWKKVKNLTIIVSRMHVQGDKVMFEGEVHFDGQRRDVSIDMRVVNGRFRTIKKEVK | 1.28 |

| Sequence | protease stability score |
| --- | --- |
| DEDEEVIRRMLETELNAVKTGDWRKFYELADPSVLVDIDGKKIHGRELWSRHLMHLRIDEIHIRIDHMDVVNGVAELHIKMEFRGTIDGVHRKQSTEVILFIKKIDGQWVIQKIEVR | 1.27 |
| DEDEEVSRRALEKWIKNFLTGNEDSVLELADPHMRIVQGDKEYHGRHEMRDMMTDWLREIRIKTVEERHFRVIDGRVDHHVTLHGIVNGKETVRRMIVISEKVDGKWILHSLEIR | 0.907 |
| DEDEEYAREMYRLSVEALSTGDEDTLRHLFDPDVKVSWNGKENIGMEQSLKHWHHLRIEFRRIKIEQVHIQGNKVRLNLRVDGYIRVDGKEDRVHMKSHSVYVKINGKWTMHSIEFE | 1.79 |
| DEDEHARKFVLDRLQHAWETGDEETMEKLMDPNAKLHVNGQDFHGRDTWHKLLHDELRDMGIKHFEFELKSFESQGNKLIIDGLEISEFNGREFRHRVTLIVDKFNGRWVVQSVEIR | 1.29 |
| DEDEHDAEIWVRLVLKSLRTGDEEFLVKMADPNVRVEVGDKKDHGRNEFRKVVHKFKGVRREIHHVDVHIQGNKAEVEIHGKLNINGVEVHIIHIIRSEKVDGQWYISEVWIIIR | 1.55 |
| DEDEHDSEIAVKLFVRHMETGDEDVLREYADPRTKILVNGRETHGWETYVKHMQETINKLGVKHTHFELKDVEVQGEKIIAHVRIELNFENHHTTINMILIIHKVDGRWHLKKMKIK | 0.871 |
| DEDEHDVRELIELVLQVERTGNWKIFERLADPNVRLNIDGQEFHGREEALKLREDLLHHWGVDNIEVTLEDVTFQGDKVNSHFTSQFNGREFELIVIIMKIDGKWFLHQIQVHER | 1.19 |
| DEDEHEMRELIDKWLHNLKTGDEKRTEELMDPHAKIRTVINGVEYRFHGREMLHYLVQILGVDHMEIKHVEIRVQGNKVENHVDLTLIVGDKHVRTRMILVAEKIDGRWEVKSLFFNIE | 1.96 |
| DEDEHFAENIIRILLHLIVTGDEDQLERLIDPHVKVTIGDKEFHGRLADEILREEIRIKRVHLRDFRIVNGRAESRFKLVGNWNGVETEFTKSVYIDKINGRWIITERHIT | 1.16 |
| DEDEHHIRTALEYLRHATETGDEELMSEMADPDVRVHVNGVELHGMESYEKWLHDVLREIRIRHVHLEDSKVIGDFVRLDLRVHTEVNGRHFRHQTILISFKYNGQWRIKSVIWR | 1.37 |
| DEDEHHSELASRLMHETTRTGDETSFLNLADPDTRLDINGREFIGREEWVKFFHKWSKHLGAKVIDTRFNDLRVIDGRIKLDMEYIVHVGDKTMHHKMIVFALKVNGRWHLESLKFE | 0.436 |
| DEDEHIERHLFEELIELLRTGDFRRLFELIDPHARFVVDGRDHHGMEYAMRERLRRLEEAGVKHIRIRRKDVINGRLHIHSSVNVNGVEQEERIIIEKVNGRWTITEIVID | 1.26 |
| DEDEHKYRRAAEEFFKILRTGDEDLWKRYADPTPILLLLVGDKIDEYHGMEEVMRVLHEEWRRLGVDHMHVKRVDLQGEKVEMDFTRHIGDKTIRITIIVVVIDGRMKSVEIRTH | 0.8 |
| DEDEHLARRLSTEVEKLMLTGDEHLIKRLLDPDARINVNGVDLHGRHHYITHLHRFLLEAGVDNVHSELTTWRVYGDYVHVHGTLHINGVRFNHHFLFEKVDGRWIIKWLDDR | 1.12 |
| DEDEHLLEMALKYFLRHWKTGDEEMIMHLADPNVRLVVGDKKHHGREELFRFVHEMGANHIEVRDSELQGNKLILHLEVNVGDKRHDIKVVIEKIDGRWHLHSLEHR | 1.65 |
| DEDEHLVRYLVEELIKFEQTGNEDEWNRLADPNVRIEINGVENHGREQYRKAFYEWRIHSLTVHHIRIDVQGEKALSIVDTETDGEYNGRQTRVKTNLIIHTKKVDGRWLVHSLVIKTE | 1.25 |
| DEDEHMRRIAYRLMWEVWHTGNFEELISLVDPHARVDIDGVELHGRENFTHELHERLRRMGVETQFRLRKVESYNGVVHIHTELEITIDGRNHKIDFIFYAHKINGRWRMKSEEYR | 1.8 |
| DEDEHMVKHAIELILKSIITGDEDLWKRLFDPDVKIEVGDKDVHGRELATEFMKLWRDHMRFTHHEITRVETYNGRAHIHGRDRVTIDGQEMTRESHLVMIKVDGRWFLHSVHIK | 1.07 |
